According to patent US20100267609:

Columns and labels:
[1] = biological target: T1, substrate EEISEVNLAAEF
T1 chain: EEISEVNLAAEF

[2] = biological target: T2, substrate EVNLAVEFWHDR
T2 chain: EVNLAVEFWHDR

[3] = biological target: T3, substrate RWHHEVNLAAEF
T3 chain: RWHHEVNLAAEF

B1: memapsin 2 (spontaneously activated promemapsin 2-T1; amino acids 43-456 and 45-456 of SEQ ID NO: 8) (protein)
chain: LRLPRETDEEPEEPGRRGSFVEMVDNLRGKSGQGYYVEMTVGSPPQTLNILVDTGSSNFAVGAAPHPFLHRYYQRQLSSTYRDLRKGVYVPYTQGKWEGELGTDLVSIPHGPNVTVRANIAAITESDKFFINGSNWEGILGLAYAEIARPDDSLEPFFDSLVKQTHVPNLFSLGLCGAGFPLNQSEVLASVGGSMIIGGIDHSLYTGSLWYTPIRREWYYEVIIVRVEINGQDLKMDCKEYNYDKSIVDSGTTNLRLPKKVFEAAVKSIKAASSTEKFPDGFWLGEQLVCWQAGTTPWNIFPVISLYLMGEVTNQSFRITILPQQYLRPVEDVATSQDDCYKFAISQSSTGTVMGAVIMEGFYVVFDRARKRIGFAVSACHVHDEFRTAAVEGPFVTLDMEDCGYNIPQTDEST
- rate of catalysis, competitive cleavage of a mixture of three peptides (MALDI-TOF) [1]: statistically identical rates of catalysis for the upstream EEIS (SEQ ID NO: 52) and the downstream WHDR (SEQ ID NO: 29) sequence additions
- Km [2]: Km of 83±8.9 mM
- rate of catalysis, competitive cleavage of a mixture of three peptides (MALDI-TOF) [3]: the RWHH (SEQ ID NO: 53) sequence addition still demonstrated a 60-fold decrease in catalytic rate
- rate of catalysis, competitive cleavage of a mixture of two peptides (MALDI-TOF), against EVNLAAEFWHDR [3]: a 60-fold decrease in the rate of catalysis for the upstream RWHH (SEQ ID NO: 53) sequence addition when compared to the downstream WHDR (SEQ ID NO: 29) sequence addition
